Measured values from patent US20260167679A1, “FUSION PROTEIN TARGETING MITOCHONDRIA, METHOD OF MAKING AND USE THEREOF” (UNIVERSITY OF ROCHESTER, priority 2020, published 2026).

Tests used:
[1] = system: isolated C. elegans mitochondria; test: Mitochondrial matrix pH measurement (BCECF-AM); format: biochemical, Caenorhabditis elegans; details: mtON activation by light
Experimental: The ratiometric pH indicator BCECF-AM (Thermo Fisher, B1170) was used to measure pH changes in the mitochondrial matrix in response to succinate respiration or mtON activation. Isolated mitochondria (˜200 μl per isolation) were incubated at room temperature with 50 μM BCECF-AM for 10 min with periodic mixing. Mitochondria were then pelleted at 7,000 g for 5 min at 4° C., and isolation media replaced and pelleted again to remove extramitochondrial BCECF-AM. Isolated mitochondrial suspensions were then assayed under the same conditions as in the mitochondrial membrane potential measurements described above. Ratiometric fluorescent signal was measured by Cary Eclipse Fluorescence Spectrophotometer (Agilent Technologies) using 440 and 490 nm excitation wavelengths and 545 nm emission. The fluorescence intensity ratio at 545 nm of 490/440 nm excitation wavelengths was used to represent pH changes in the mitochondrial matrix. Light treatment was 0.16 J/cm^2 (XCite LED, 0.02 mW/mm^2), and 2 μM FCCP was used at the end of each trace to establish baseline signal.

[2] = system: isolated C. elegans mitochondria; test: ATP measurement in isolated mitochondria (luciferase); format: biochemical, Caenorhabditis elegans; details: isolated mitochondria supplied with ADP, mtON activation
Experimental: Relative ATP levels were determined in isolated mitochondria given a known amount of ADP to test the ability of mtON to drive ATP synthesis. A luciferase bioluminescence kit was used according to the manufacturer's instructions (Invitrogen™ Molecular Probes™, A22066). Mitochondria were stirred in MRB at 0.5 mg/ml with 1 mg/ml fat-free BSA, 600 μM ADP, and 2 μM rotenone. 5 mM succinate was used for a control for maximum ATP level, and 0.001 mg/ml oligomycin A was used as a zero ATP synthesis control. Mitochondrial suspensions were immediately frozen with liquid nitrogen after 1, 5, or 10 min light exposure (XCite LED, 0.02 mW/mm^2). Samples were then thawed on ice, centrifuged at 14,800 g, and supernatant was collected and run at 1:100 dilution in MRB in the luminescence assay. Oligomycin A control values were subtracted from experimental reads, and data were then normalized to luminescent signal from succinate control samples (complete ADP conversion confirmed by monitoring 02 consumption rate transitions).

[3] = system: isolated C. elegans mitochondria; test: Mitochondrial O2 consumption (Clark-type electrode); format: biochemical, Caenorhabditis elegans; details: isolated mitochondria fueled with substrates, mtON activated
Experimental: O2 consumption was measured using a Clark-type O2 electrode (S1 electrode disk, DW2/2 electrode chamber and Oxy-Lab control unit, Hansatech Instruments, Norfolk UK) at 25° C. Isolated mitochondria were stirred in MRB at 1 mg/ml with 1 mg/ml fat-free BSA. Substrates and inhibitors were added by syringe port (100 μM ADP, 2 μM rotenone, 5 mM succinate). Given excess succinate as substrate for ETC respiration, we measured the amount of O2 required to convert 50 nmol of ADP to ATP and established a baseline for comparison. To test mtON activity, mitochondria were illuminated as in the ATP measurement, for 1, 5, or 10 min in the presence of ADP without succinate to allow for mtON conversion of ADP to ATP. Any remaining ADP was then converted using 02-dependent ETC respiration upon succinate addition. Slopes were calculated from plots of O2 concentration versus time to give rates of 02 consumption during ADP respiration, ADP+succinate respiration, and respiration after ADP had been entirely consumed. The intersections of these three rates were used to calculate total amount of O2 consumed during ADP+succinate respiration. Light activation of mitochondria (XCite LED, 0.02 mW/mm^2) during ADP respiration alone was carried out for differing lengths of time to test the ability of mtON to drive ADP consumption before succinate was added. […]

C. elegans [4] = test: ETC inhibitor assays, survival of animals; format: in vivo, Caenorhabditis elegans
Experimental: Experiments were performed on at least three separate days, using 15-100 young adult animals per plate. Seeded plates were supplemented with rotenone (50 μM final concentration), antimycin A (50 μM final concentration), or oligomycin A (31 μM final concentration) 24 h before animals were transferred onto them. For azide toxicity, animals were placed in M9 buffer with 250 mM azide. Control plates were kept in the dark, and experimental plates were exposed to 1 Hz light (Quantum LED, 0.02 mW/mm^2) for the duration of the experiment. For all toxins, animals that were moving or those that moved in response to a light touch to the head were scored as alive. For rotenone, surviving animals were scored after 5 h. For antimycin A, animals were scored 16 h after exposure. For azide, animals were exposed for 1 h in M9 and allowed to recover for 1 h on a seeded culture plate and then survival was scored. Azide experimental plates were exposed to light (XCite LED, 0.19 mW/mm^2) for the duration of azide treatment and recovery. […]. For oligomycin A, animals were scored 18 h after exposure.
Experiments were carried out using a hypoxic chamber (Coy Laboratory Products, 5%/95% H2/N2 gas, palladium catalyst) at 26° C. with 50-100 animals per plate. O2 was <0.01%. Hypoxic preconditioning (PC) duration was 4 h, and control animals were incubated at 26° C. in room air for the same time. 1 Hz illumination (Quantum LED, 0.02 mW/mm^2) was carried out during PC period or during the hypoxic period. Hypoxic exposure was for 18.5, 21 h after PC. Twenty-four hours after hypoxia exposure, animals that were moving or those that moved in response to a light touch to the head were scored as alive. Data from days where PC was at least 15% effective for both +ATR and −ATR were used. Animals supplemented with ATR were allowed to lay eggs onto plates with no ATR that were subsequently used for HR experiments to minimize confounding effects of ATR. ATR from the parent animal was sufficient to provide active mtON in progeny as tested by the azide toxin assay described above. […] FCCP dissolved in ethanol was deposited onto seeded NGM plates.

C. elegans [5] = test: Locomotion assay (body bends); format: in vivo, Caenorhabditis elegans; details: mtON activation
Experimental: […] One body bend was scored as a deflection of direction of motion of the posterior pharyngeal bulb. For AMPK activation, animals were placed on plates containing 1 mM AICAR 4 h before counting body bends. AICAR was dissolved in M9 buffer, added directly onto OP50 seeded plates, and allowed to dry. Illumination was continuous through measurements (MVX, 0.265 mW/mm^2).

B1: mtON: fusion of the 187 N-terminal amino acids of mouse IMMT1 to the light-activated proton pump (Mac) from Leptosphaeria maculans (protein)
chain: MLRACQLSGVTVAAQSCLCGKFVLRPLRPCRRYSTSSSSGLTAGKIAGAGLLFVGGGIGGTILYAKWDSHFRESVEKTIPYSDKLFGMVLGSAPYTVPLPKKPVQSGPLKISSVSEVMKDSKLPVAQSQKTKGDTPASAASTGAAQIISAAGDTLSVPAPAVQHEDTIKTECPNTNEGKSTSETTEEPAGLIVDQFEEVLMKTSQLFPLPTATQSAQPTHVAPVPTVLPDTPIYETVGDSGSKTLWVVFVLMLIASAAFTALSWKIPVNRRLYHVITTIITLTAALSYFAMATGHGVALNKIVIRTQHDHVPDTYETVYRQVYYARYIDWAITTPLLLLDLGLLAGMSGAHIFMAIVADLIMVLTGLFAAFGSEGTPQKWGWYTIACIAYIFVVWHLVLNGGANARVKGEKLRSFFVAIGAYTLILWTAYPIVWGLADGARKIGVDGEIIAYAVLDVLAKGVFGAWLLVTHANLRESDVELNGFWANGLNREGAIRIGEDDGAR
modifications: Synthetic Complete mtON fusion protein sequence
[1]
  mitochondrial matrix pH (BCECF-AM ratio): matrix pH increased
[2]
  ATP levels: increased ATP levels
[3]
  oxygen needed to make ATP: decreased reliance on oxygen to make ATP
C. elegans [4]; 31 μM oligomycin A, scored 18 hours later
  survival: No significant differences
C. elegans [4]; 50 μM rotenone for 5 hours, +ATR +light
  survival: greater than the ATR alone effect
C. elegans [4]; azide toxin assay, progeny of ATR-supplemented parents, +ATR +light
  survival: 66.8%
C. elegans [4]; mtON active vs controls
  survival of animals exposed to ETC toxins: survived more
C. elegans [5]; animals off food
  locomotion off food: suppressing their movement
C. elegans [5]; complex I mutant background (gas-1), in presence of food
  locomotion speed (body bends per minute): rescued the decreased locomotion
